Results: the PETadex activity labels (doi:10.1007/s00253-011-3781-6)

Experiments:
Details in all cases: pH 6; 37 °C
p-NP-C2 = substrate: p-NP-C2
p-NP-C4 = substrate: p-NP-C4
p-NP-C6 = substrate: p-NP-C6
p-NP-C8 = substrate: p-NP-C8

B1: unnamed (protein)
chain: MSVTTPRRETSLLSRALRATAAAATAVVATVALAAPAQAANPYERGPNPTESMLEARSGPFSVSEERASRFGADGFGGGTIYYPRENNTYGAIAISPGYTGTQSSIAWLGERIASHGFVVIAIDTNTTLDQPDSRARQLNAALDYMLTDASSAVRNRIDASRLAVMGHSMGGGGTLRLASQRPDLKAAIPLTPWHLNKSWRDITVPTLIIGAEYDTIASVTLHSKPFYNSIPSPTDKAYLELDGASHFAPNITNKTIGMYSVAWLKRFVDEDTRYTQFLCPGPRTGLLSDVEEYRSTCPF
Km (p-NP-C2): 3220 µM | kcat (p-NP-C2): 2.06 s⁻¹ | kcat/Km (p-NP-C2): 640 M⁻¹ s⁻¹ | Km (p-NP-C4): 3410 µM | kcat (p-NP-C4): 4.48 s⁻¹ | kcat/Km (p-NP-C4): 1310 M⁻¹ s⁻¹ | Km (p-NP-C6): 2370 µM | kcat (p-NP-C6): 3.28 s⁻¹ | kcat/Km (p-NP-C6): 1380 M⁻¹ s⁻¹ | Km (p-NP-C8): 1870 µM | kcat (p-NP-C8): 2.45 s⁻¹ | kcat/Km (p-NP-C8): 1310 M⁻¹ s⁻¹
